Data reported in patent US6063592A, “Kell protein proteolytic activity” (New York Blood Center, Inc., priority 1998, dated 2000).
Residues, ends and D or L forms follow the SMILES beside them.

How the values were obtained:
[1] = system: hematopoiesis cell culture system; assay: Hematopoiesis cell culture system grown on methyl cellulose plates; type: cell-based; settings: preliminary studies
Text: Meanwhile, the concentration of phosphoramidon needed to inhibit the proteolytic cleavage of big-endothelins by ECE-1 and Kell protein are different. While it is not intended to be bound by theory, it is possible that Kell participates in the proteolytic processing of growth factors or cytokines during hematopoiesis.

Kell protein [2] = assay: Inhibition of Kell proteolytic activity by phosphoramidon; type: biochemical, human
Kell protein [3] = biological target: T1, Kell protein (Homo sapiens, UniProt P23276); assay: as above; type: biochemical; settings: Kell protease; read-out: Concentration which gives 50% of inhibition
T1 construct: placing the cDNA that encodes the extracellular portion of Kell in a baculovirus transfer vector pAcGP67-A; made in house; host or cells: sf9 insect cells, baculovirus (pAcGP67A), protein-containing culture medium
T1 sequence (P23276 68-732): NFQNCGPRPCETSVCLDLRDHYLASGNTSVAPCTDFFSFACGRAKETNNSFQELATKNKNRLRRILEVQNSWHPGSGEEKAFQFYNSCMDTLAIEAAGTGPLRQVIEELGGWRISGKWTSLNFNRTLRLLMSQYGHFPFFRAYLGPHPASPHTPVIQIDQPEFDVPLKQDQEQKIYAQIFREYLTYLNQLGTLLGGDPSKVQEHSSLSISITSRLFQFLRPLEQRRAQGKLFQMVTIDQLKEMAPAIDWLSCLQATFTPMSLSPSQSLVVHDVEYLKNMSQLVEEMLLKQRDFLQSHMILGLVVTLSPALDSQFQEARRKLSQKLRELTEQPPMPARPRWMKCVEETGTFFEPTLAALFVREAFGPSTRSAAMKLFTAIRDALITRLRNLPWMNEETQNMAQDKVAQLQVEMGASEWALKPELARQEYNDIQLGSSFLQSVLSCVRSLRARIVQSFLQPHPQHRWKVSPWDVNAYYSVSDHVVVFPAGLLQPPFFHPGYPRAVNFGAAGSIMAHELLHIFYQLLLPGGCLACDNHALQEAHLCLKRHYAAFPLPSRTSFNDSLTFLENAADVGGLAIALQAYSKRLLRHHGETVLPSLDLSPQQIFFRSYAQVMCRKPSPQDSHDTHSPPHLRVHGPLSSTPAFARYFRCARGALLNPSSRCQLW

Kell protein [4] = biological target: T2, Kell protein (Homo sapiens, UniProt P23276); assay: Bradykinin cleavage by Kell protein; type: biochemical
T2 sequence (P23276 1-732): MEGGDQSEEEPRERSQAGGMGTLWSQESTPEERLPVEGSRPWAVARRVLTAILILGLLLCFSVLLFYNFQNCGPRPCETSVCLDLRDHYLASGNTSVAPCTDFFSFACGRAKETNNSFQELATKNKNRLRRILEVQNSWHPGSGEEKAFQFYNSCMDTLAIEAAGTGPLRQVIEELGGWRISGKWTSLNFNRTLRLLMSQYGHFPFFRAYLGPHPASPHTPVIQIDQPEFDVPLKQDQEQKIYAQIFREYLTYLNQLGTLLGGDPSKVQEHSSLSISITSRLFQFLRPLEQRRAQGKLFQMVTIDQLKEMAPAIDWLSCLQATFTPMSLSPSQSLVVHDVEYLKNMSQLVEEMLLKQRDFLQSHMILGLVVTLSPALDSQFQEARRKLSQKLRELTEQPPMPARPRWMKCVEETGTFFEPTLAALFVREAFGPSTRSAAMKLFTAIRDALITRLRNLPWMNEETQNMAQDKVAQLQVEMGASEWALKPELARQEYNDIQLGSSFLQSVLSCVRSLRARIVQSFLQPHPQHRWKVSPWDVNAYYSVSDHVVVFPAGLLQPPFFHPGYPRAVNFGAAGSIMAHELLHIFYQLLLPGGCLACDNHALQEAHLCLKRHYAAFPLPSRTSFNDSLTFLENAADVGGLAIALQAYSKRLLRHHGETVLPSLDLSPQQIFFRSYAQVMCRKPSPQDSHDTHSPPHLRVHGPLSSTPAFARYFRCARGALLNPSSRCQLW

[5] = system: Soluble Kell proteins (sKell); assay: VIP cutting by sKell proteins; type: biochemical, human; settings: sf9 protein free media containing sKell
Text: Soluble Kell proteins (sKell) proteins were used to cut vasoactive intestinal peptide (VIP).

Kell protein [6] = biological target: T1, Kell protein; assay: Digestion of big endothelins with soluble recombinant Kell protein, HPLC analysis; type: biochemical; settings: for cleavage by wild-type Kell and Jsa Kell: N-terminal sequencing and mass spectrometry of cleaved products, yields endothelins; for Km: measured by HPLC, read-out: substrate affinity for cleavage by Kell protein
Procedure: Digestion of Big Endothelin-1,-2, and -3 (Big ET-1, -2, and -3) With Soluble Recombinant Proteins
Enzyme reaction mixture was made by mixing 8-16 μl of 1 mg/ml big ET-1 (1-38), big ET-2 (1-37 or 1-38) and big ET-3 (1-41) (American Peptide Co., Sunnyvale, Calif. and Sigma, St. Louis, Mo. and Peptide Institute, Inc., Osaka, Japan), 10 μl 1 mM ZnCl2 final concentration 86 μM and 70 μl recombinant protein containing media. The mixture was incubated at 37° C. for different time periods. Twenty to 25 aliquots of this incubation mix was assayed by reverse HPLC. The conditions of the analysis were:
Solvent A: 0.1% TFA/2,5% 1-Propanol (PrOH)/H2 O (500 μl
Trifluoroacetic acid+1 L H2 O+25 ml 1-PrOH).
Solvent B; 0.09% TFA/2.5% 1-PrOH/90% Acetonitrile/H2 O (450 μl
TFA+1 L Acetonitrile+100 ml H2 O+25 ml 1-PrOH).
Gradient condition was 1-61% A In B over 0-60 minutes at a flow rate of 0.15 ml/min. The column used was reverse phase C18 column (2×150 mm, Vydac).

Kell protein [7] = biological target: T1, Kell protein; assay: Digestion of big endothelins with soluble recombinant Kell protein, EIA assay; type: biochemical; settings: measured by EIA; 15 min; read-out: substrate affinity for cleavage by Kell protein
Procedure: Enzyme reaction mix was made by mixing various amounts of 10 μM big ET's, 20 μl of 10 Kell assay buffer (0.5 M HEPES, 0.5 mM ZnCl2 and 1.5 NaCl containing 4% (v/v) of supernatant boiled BSA) and various amounts of soluble protein containing media (ranging from 0.0313 μl to 4 μl) and H2 O to make a total volume of 200 μl. The enzyme reaction was incubated at 37° C. for 15 min. At the end of the incubation time, 100 μl of 5 mM EDTA was added to terminate the reaction. Various amounts of the sample up to 100 μl were used in Enzyme-linked Immunoassay using Endothelin-1EIA kit (Cayman Chemical).

[8] = biological target: Big Endothelin-3 (1-41) (Homo sapiens)
[9] = biological target: Big Endothelin-1 (1-38) (Homo sapiens)
Kell protease = biological target: T3, Kell protease (Homo sapiens, UniProt P23276); assay: pH optimum of Kell protease; type: biochemical
T3 sequence (P23276 1-732): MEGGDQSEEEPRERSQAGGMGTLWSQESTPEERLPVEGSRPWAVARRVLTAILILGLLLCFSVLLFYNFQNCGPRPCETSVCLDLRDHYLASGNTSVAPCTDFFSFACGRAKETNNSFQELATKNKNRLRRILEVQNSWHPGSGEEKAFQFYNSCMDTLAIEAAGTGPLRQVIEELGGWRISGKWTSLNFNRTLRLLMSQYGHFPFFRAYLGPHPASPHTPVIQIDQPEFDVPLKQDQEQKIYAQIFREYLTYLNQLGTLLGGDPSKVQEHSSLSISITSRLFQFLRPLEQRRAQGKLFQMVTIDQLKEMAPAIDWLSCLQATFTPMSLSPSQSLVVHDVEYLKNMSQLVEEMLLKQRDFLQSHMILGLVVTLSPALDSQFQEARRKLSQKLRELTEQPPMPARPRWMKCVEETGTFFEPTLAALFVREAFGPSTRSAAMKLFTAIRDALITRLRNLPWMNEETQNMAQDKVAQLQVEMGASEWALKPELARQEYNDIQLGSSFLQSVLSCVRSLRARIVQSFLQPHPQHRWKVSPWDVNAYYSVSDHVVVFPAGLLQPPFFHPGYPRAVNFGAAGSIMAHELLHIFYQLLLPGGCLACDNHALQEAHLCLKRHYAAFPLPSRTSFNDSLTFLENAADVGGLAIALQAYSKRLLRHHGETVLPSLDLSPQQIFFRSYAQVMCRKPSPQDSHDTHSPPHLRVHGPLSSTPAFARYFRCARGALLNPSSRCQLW

Molecule: CC(C)C[C@H](NP(=O)(O)O[C@@H]1O[C@@H](C)[C@H](O)[C@@H](O)[C@H]1O)C(=O)N[C@@H](Cc1c[nH]c2ccccc12)C(=O)O [Phosphoramidon]
- effect on cell growth ([1]; higher concentration of phosphoramidon (50-100 μM)): inhibited cell growth
- effect on cell growth ([1]; low concentration of phosphoramidon (3.5-7.0 μM)): increased cell growth
- inhibition of Kell enzymatic activity (Kell protein [2]): inhibited
- IC50 (Kell protein [3]): 50 to 100 µM

Molecule: NC(N)=NCCC[C@H](NC(=O)[C@H](Cc1ccccc1)NC(=O)[C@@H]1CCCN1C(=O)[C@H](CO)NC(=O)[C@H](Cc1ccccc1)NC(=O)CNC(=O)[C@@H]1CCCN1C(=O)[C@@H]1CCCN1C(=O)[C@@H](N)CCCN=C(N)N)C(=O)O [bradykinin] (H-RPPGFSPFR-OH)
- cleavage by Kell protein (Kell protein [4]): does not cleave

Molecule: VIP: vasoactive intestinal peptide (1-28), a vasodilator (HSDAVFTDNYTRLRKQMAVKKYLNSILN)
- cleavage of VIP by soluble Kell [5]: cleaves
- cleavage of VIP by soluble Kell ([5]; listed as vasoactive intestinal peptide (VIP)): cleaved

Molecule: big-endothelin-1: inactive 38 amino acid precursor of endothelin-1, substrate of Kell protein (CSCSSLMDKECVYFCHLDIIWVNTPEHVVPYGLGSPRS)
- cleavage by wild-type Kell and Jsa Kell (Kell protein [6]): cleaved
- Km (Kell protein [6]): ~80 µM

Molecule: big-endothelin-2: inactive precursor of endothelin-2, substrate of Kell protein (CSCSSWLDKECVYFCHLDIIWVNTPEQTAPYGEGNPP)
- cleavage by wild-type Kell and Jsa Kell (Kell protein [6]): cleaved
- Km (Kell protein [6]): ~20 µM

Molecule: big-endothelin-3: inactive precursor of endothelin-3, substrate of Kell protein (CTCFTYKDKECVYYCHLDIIWVNTPEQTVPYGLSNYRGSFR)
- cleavage by wild-type Kell and Jsa Kell (Kell protein [6]): cleaved
- Km (Kell protein [7]): < 2000 nM

Molecule: soluble wild type Kell (secreted form of wild-type Kell protein, extracellular portion, expressed in sf9 cells) (from UniProt P23276) (enzyme)
- cleavage of big endothelin-3; substrate affinity (EIA) [8]: < 2 µM
- cleavage of big endothelin-1; substrate affinity (HPLC) [9]: 80 µM
- cleavage of big endothelin-2; substrate affinity (HPLC) (Big Endothelin-2 (1-37)): 20 µM

B1: Kell protease: secreted recombinant wild-type human Kell blood group protein expressed in sf9 cells (protein)
chain: NFQNCGPRPCETSVCLDLRDHYLASGNTSVAPCTDFFSFACGRAKETNNSFQELATKNKNRLRRILEVQNSWHPGSGEEKAFQFYNSCMDTLAIEAAGTGPLRQVIEELGGWRISGKWTSLNFNRTLRLLMSQYGHFPFFRAYLGPHPASPHTPVIQIDQPEFDVPLKQDQEQKIYAQIFREYLTYLNQLGTLLGGDPSKVQEHSSLSISITSRLFQFLRPLEQRRAQGKLFQMVTIDQLKEMAPAIDWLSCLQATFTPMSLSPSQSLVVHDVEYLKNMSQLVEEMLLKQRDFLQSHMILGLVVTLSPALDSQFQEARRKLSQKLRELTEQPPMPARPRWMKCVEETGTFFEPTLAALFVREAFGPSTRSAAMKLFTAIRDALITRLRNLPWMNEETQNMAQDKVAQLQVEMGASEWALKPELARQEYNDIQLGSSFLQSVLSCVRSLRARIVQSFLQPHPQHRWKVSPWDVNAYYSVSDHVVVFPAGLLQPPFFHPGYPRAVNFGAAGSIMAHELLHIFYQLLLPGGCLACDNHALQEAHLCLKRHYAAFPLPSRTSFNDSLTFLENAADVGGLAIALQAYSKRLLRHHGETVLPSLDLSPQQIFFRSYAQVMCRKPSPQDSHDTHSPPHLRVHGPLSSTPAFARYFRCARGALLNPSSRCQLW
- pH optimum (Kell protease): 6.0-6.5

B2: Jsa: secreted form of Js^a Kell phenotype (L597P) (protein)
chain: NFQNCGPRPCETSVCLDLRDHYLASGNTSVAPCTDFFSFACGRAKETNNSFQELATKNKNRLRRILEVQNSWHPGSGEEKAFQFYNSCMDTLAIEAAGTGPLRQVIEELGGWRISGKWTSLNFNRTLRLLMSQYGHFPFFRAYLGPHPASPHTPVIQIDQPEFDVPLKQDQEQKIYAQIFREYLTYLNQLGTLLGGDPSKVQEHSSLSISITSRLFQFLRPLEQRRAQGKLFQMVTIDQLKEMAPAIDWLSCLQATFTPMSLSPSQSLVVHDVEYLKNMSQLVEEMLLKQRDFLQSHMILGLVVTLSPALDSQFQEARRKLSQKLRELTEQPPMPARPRWMKCVEETGTFFEPTLAALFVREAFGPSTRSAAMKLFTAIRDALITRLRNLPWMNEETQNMAQDKVAQLQVEMGASEWALKPELARQEYNDIQLGSSFLQSVLSCVRSLRARIVQSFLQPHPQHRWKVSPWDVNAYYSVSDHVVVFPAGLLQPPFFHPGYPRAVNFGAAGSIMAHELLHIFYQLLLPGGCPACDNHALQEAHLCLKRHYAAFPLPSRTSFNDSLTFLENAADVGGLAIALQAYSKRLLRHHGETVLPSLDLSPQQIFFRSYAQVMCRKPSPQDSHDTHSPPHLRVHGPLSSTPAFARYFRCARGALLNPSSRCQLW
- cleavage of VIP by soluble Kell [5]: cleaves more than wild type Kell
